Experiments:
centromere B = target: T1, centromere B (UniProt P07199 2-599); experiment: Luminex AtheNA Multi-Lyte ANA-II Plus bead assay
T1 construct: Kit antigen
T1 sequence: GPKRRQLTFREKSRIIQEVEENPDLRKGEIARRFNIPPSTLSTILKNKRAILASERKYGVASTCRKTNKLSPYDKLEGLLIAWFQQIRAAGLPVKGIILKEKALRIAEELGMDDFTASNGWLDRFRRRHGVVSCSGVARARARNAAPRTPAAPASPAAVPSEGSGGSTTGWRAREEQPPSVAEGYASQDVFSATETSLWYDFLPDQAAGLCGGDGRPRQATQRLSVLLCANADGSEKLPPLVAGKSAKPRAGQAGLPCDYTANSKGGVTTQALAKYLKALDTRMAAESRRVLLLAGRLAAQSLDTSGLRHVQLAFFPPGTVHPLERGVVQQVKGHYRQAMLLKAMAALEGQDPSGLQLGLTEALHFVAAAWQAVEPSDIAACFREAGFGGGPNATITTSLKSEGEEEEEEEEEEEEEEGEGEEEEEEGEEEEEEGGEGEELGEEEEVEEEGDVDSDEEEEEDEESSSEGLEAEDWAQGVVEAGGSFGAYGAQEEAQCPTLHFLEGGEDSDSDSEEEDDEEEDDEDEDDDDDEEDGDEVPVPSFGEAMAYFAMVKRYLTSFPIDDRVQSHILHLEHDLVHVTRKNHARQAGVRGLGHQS

Jo-1 = target: T2, Jo-1 (UniProt P12081 2-509); experiment: Luminex AtheNA Multi-Lyte ANA-II Plus bead assay
T2 construct: Kit antigen
T2 sequence: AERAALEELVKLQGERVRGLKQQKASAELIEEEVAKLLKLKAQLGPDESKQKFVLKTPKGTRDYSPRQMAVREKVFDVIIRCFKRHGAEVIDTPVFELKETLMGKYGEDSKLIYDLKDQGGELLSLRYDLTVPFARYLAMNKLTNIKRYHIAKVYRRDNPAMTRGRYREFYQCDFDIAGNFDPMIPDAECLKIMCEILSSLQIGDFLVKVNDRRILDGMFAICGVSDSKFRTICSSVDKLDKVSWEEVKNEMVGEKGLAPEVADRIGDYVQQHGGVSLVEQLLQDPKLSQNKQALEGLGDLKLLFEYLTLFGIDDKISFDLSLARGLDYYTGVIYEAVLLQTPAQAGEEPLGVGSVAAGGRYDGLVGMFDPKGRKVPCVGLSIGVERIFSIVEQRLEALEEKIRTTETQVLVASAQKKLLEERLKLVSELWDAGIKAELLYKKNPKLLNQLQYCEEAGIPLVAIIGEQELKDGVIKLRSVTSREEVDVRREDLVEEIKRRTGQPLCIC

SS-B/La = target: T3, SS-B/La (UniProt P05455 1-408); experiment: Luminex AtheNA Multi-Lyte ANA-II Plus bead assay
T3 construct: Kit antigen
T3 sequence: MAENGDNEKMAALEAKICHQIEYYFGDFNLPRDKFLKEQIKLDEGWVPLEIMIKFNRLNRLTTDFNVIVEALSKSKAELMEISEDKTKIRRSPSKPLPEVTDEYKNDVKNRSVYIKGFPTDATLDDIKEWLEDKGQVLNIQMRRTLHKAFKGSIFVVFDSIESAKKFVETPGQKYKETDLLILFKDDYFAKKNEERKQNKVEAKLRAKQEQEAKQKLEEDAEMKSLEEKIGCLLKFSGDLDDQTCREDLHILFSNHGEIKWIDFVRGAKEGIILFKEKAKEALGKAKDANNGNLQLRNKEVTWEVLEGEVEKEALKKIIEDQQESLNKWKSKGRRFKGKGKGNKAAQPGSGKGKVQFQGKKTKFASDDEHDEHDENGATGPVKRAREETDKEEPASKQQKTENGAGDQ

Scl 70 = target: T4, Scl 70 (UniProt P11387 2-765); experiment: Luminex AtheNA Multi-Lyte ANA-II Plus bead assay
T4 construct: Kit antigen
T4 sequence: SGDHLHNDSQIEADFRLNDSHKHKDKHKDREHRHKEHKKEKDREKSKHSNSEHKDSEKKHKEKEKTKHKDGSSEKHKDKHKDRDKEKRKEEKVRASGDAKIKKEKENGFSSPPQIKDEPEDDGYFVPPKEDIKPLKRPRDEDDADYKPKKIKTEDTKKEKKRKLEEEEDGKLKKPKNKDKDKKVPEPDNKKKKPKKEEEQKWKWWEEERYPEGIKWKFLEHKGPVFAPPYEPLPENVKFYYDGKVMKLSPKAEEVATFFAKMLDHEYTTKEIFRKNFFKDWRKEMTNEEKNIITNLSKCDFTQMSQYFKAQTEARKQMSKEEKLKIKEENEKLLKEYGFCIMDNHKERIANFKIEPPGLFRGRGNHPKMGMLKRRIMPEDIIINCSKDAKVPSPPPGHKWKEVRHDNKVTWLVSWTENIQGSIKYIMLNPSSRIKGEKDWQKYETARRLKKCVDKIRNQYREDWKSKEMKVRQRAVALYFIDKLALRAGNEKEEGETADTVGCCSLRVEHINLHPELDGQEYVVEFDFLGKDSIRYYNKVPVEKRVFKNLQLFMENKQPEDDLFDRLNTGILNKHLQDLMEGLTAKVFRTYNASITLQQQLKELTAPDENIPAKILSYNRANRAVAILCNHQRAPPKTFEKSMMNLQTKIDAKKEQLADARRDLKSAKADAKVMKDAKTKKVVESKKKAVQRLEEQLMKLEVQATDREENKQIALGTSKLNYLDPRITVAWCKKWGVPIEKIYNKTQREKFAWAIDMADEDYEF

SARS-CoV-2 S2 domain = target: T5, SARS-CoV-2 S2 domain (SARS-CoV-2, UniProt P0DTC2 686-1213); experiment: ELISA on SARS-CoV-2 subdomain proteins (FIG. 15A, FIG. 19A)
T5 construct: domain: S2; also called the S2 domain

SARS-CoV-2 NTD = target: T6, SARS-CoV-2 NTD (SARS-CoV-2, UniProt P0DTC2 16-305); experiment: ELISA on RBD and NTD proteins (FIG. 15B, FIG. 19B)
T6 construct: domain: NTD; also called the NTD; N-terminal domain

SARS-CoV-2 S1 domain = target: T7, SARS-CoV-2 S1 domain (SARS-CoV-2, UniProt P0DTC2 16-685); experiment: ELISA on SARS-CoV-2 subdomain proteins (FIG. 15A, FIG. 19A)
T7 construct: domain: S1; also called the S1 domain

Binder | binding result (centromere B) | binding result (Jo-1) | binding result (SS-B/La) | binding result (Scl 70) | binding result (SARS-CoV-2 S2 domain) | binding result (SARS-CoV-2 NTD) | binding result (SARS-CoV-2 S1 domain)
46472-1 (antibody, V domains shown) VH: QVQLVQSGAEVKKDGSSVKVSCEASGGTFSDYAISWVRQAPGQGLEWMGRIIPILGITNYAQQFQTRVTITADKSTSAVYMELSSLRSKDTAIYYCAREVNYYSAFDDWGQGTQVTVSS VL: EIVMTQSPDTLSVSPGERATLSCRASQNVSSNLAWYQQKPGQAPRLLIYDASTRATGIPARFSGSGSGTEFTLAISSLQSEDFAVYYCQQYNFWWTFGQGTKVDIK | no binding | no binding | no binding | no binding | binds |  | 
46472-2 (antibody, V domains shown) VH: EVQLVQSGAEVKKPGESLRISCKGSGYRFITYWISWVRQMPGRGLEWMGKIDPSDSSTNYSPSFQGHVAISVDKSFNTAYLQWSRLNTSDTAMYYCAAGPTGYDLLTGQYFPYFNYWAQGTLVTVSS VL: NFMLTQPHSVSESPGKTVSISCTRSSGSIASKFMQWYQQRPGSAPTILIYEDNLRPSGVPDRFSGSIDTSSNSALLTISGLKTEDEADYYCQSYHGSDVVFGGGTKLTVL | no binding | no binding | no binding | no binding | binds |  | 
46472-3 (antibody, V domains shown) VH: QVQLVESGGGVVQPGRSLRLSCAASGFTFSVYPMHWVRQAPGRGLEWVAVISYDGSNQYYADSVRGRFTISRDNSKNTLYLHMNSLRPEDTAVFYCARDRSATYYGPFDYWGQGTLVTVSS VL: SSELTQDPAVSVALGQTVRITCQGDSLRSYSASWYQQKPSQAPVLVIYANNNRPSGIPDRFSGSNSGNTASLTITGAQAEDEADYYCNSRDNSGNHPVIFGGGTTLTVL | no binding | no binding | no binding | no binding | binds |  | 
46472-4 (antibody, V domains shown) VH: EVPLLESGGGLVQPGGSLRLSCVASGFPFSSFALSWVRQAPGKGLEWVSTINTNGGTTYYLDSVKGRFTVSRDNSKNTLFLQMSSLRAEDTAIYYCAKDLLSHSGTYSAGSTFDYWGQGTLVIVSS VL: DIQMTQSPSSLSASVGDRVTITCRASQSIGVYLNWYQQKPGKAPKLLIHATSNLQSGVPSRFSCSGSGTEFTLTISSLQPEDFATYYCQESYSTNTFGQGTKLEIK | no binding | no binding | no binding | no binding | binds |  | 
46472-6 (antibody, V domains shown) VH: QLQLQESGPGLVKPSETLFLFCSVSGGSISISTHYWEWIRQPPGKGLEWIGSFYSSGTTYYNPSLKGRVTISADTSKSQISLKMSSVTAADTAVYYCARRPQYLLLSMTTGRRHHDFVMDVWGQGTTVTVSS VL: not shown | no binding |  | no binding | no binding |  | binds | binds
46472-12 (antibody, V domains shown) VH: QVQLVQSGAEVQKPGASVKVSCKASGYRFDIFDINWVRQASGQGPEWMGWMNPNSGNTGYAHKFQGRVTMTRDSSTNTAYMELSSLTFEDTAVYYCARDRVERTGNVGFGYYAMDVWGQGTTVIVSS VL: DIQMTQSPSSLSASVGDRVTITCRASQSITNYLNWYQQRPGKAPRLLIYAASSLQSGVPSRFSGSGSGTDFTLTISSLQPEDFGTFYCQQTYSSPSYTFGQGTKLEMK | no binding | no binding | no binding | no binding |  |  | binds
